The supplement of paper PMC7125110
± gives the standard error. Fewer inactive variants are shown than the library holds.

B1: glmS ribozyme (parent)
chain: AUAAAAGCGCCAGAACUACAGAAAUGUAGUUGACGAGGAGGAGGUUUAUCGAAUUUUCGGCGGAUGCCUCCAAA

Legend:
Conditions in all cases: with glucosamine-6-phosphate
glucosamine-6-phosphate [1] = variants of: B1; experiment: self-cleavage kobs at 640 uM GlcN6P; higher = faster cleavage; RNA array
Procedure, shortened: (§1)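 Ribozyme variants carrying barcodes were transcribed in situ on sequenced MiSeq chips by E. coli RNA polymerase and tracked at 37 °C with a hybridised Cy3 probe. They were exposed to 40 μM to 10 mM glucosamine-6-phosphate in HEPES/KCl/Mg(OAc)2 buffer. kobs came from exponential decay fits of normalised per-tile medians, and kcat and KM from weighted Michaelis–Menten fits.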

glucosamine-6-phosphate [2] = variants of: B1; experiment: self-cleavage kobs at 2500 uM GlcN6P; higher = faster cleavage; RNA array
Procedure, shortened: as §1

glucosamine-6-phosphate [3] = variants of: B1; experiment: self-cleavage kobs at 10000 uM GlcN6P; higher = faster cleavage; RNA array
Procedure, shortened: as §1

Variant | self-cleavage kobs at 640 uM GlcN6P (glucosamine-6-phosphate [1]) [s⁻¹] | self-cleavage kobs at 2500 uM GlcN6P (glucosamine-6-phosphate [2]) [s⁻¹] | self-cleavage kobs at 10000 uM GlcN6P (glucosamine-6-phosphate [3]) [s⁻¹]
C16U U57G C68U | 3.89e-05 ± 1.6e-05 | – | –
A53G U54A G63U | < 1e-05 | < 1e-05 | –
A39U A42C U49G | < 1e-05 | – | –
A52U A53G G59C | < 1e-05 | < 1e-05 | –
G9U C10U C11A | < 1e-05 | – | –
A14G C16U U45C | 0.000986 ± 0.00024 | 0.00371 ± 0.00065 | –
C10A A36C U46A | < 1e-05 | < 1e-05 | < 1e-05
A6C A36C U56G | < 1e-05 | < 1e-05 | –
U45A U49C | < 1e-05 | – | < 1e-05
G37C C68U U69G | 6e-05 ± 2e-05 | – | –
U55A U65C C68U | 0.000206 ± 8.7e-05 | 0.000114 ± 3.5e-05 | –
G38U C67U C70U | 0.000296 ± 0.00014 | – | –
A39C U45A C68G | < 1e-05 | – | –
A14G A15G C34G U69A | 0.000303 ± 0.00014 | – | –
U31G G38U U69A C71U | 0.000772 ± 0.0003 | – | –
U31C A33U A36U G38C C58U U65G G66C C71U | < 1e-05 | < 1e-05 | –
G29U G41C A42U G63U | < 1e-05 | – | –

Variant | self-cleavage kobs at 640 uM GlcN6P (glucosamine-6-phosphate [1]) [s⁻¹] | self-cleavage kobs at 2500 uM GlcN6P (glucosamine-6-phosphate [2]) [s⁻¹] | self-cleavage kobs at 10000 uM GlcN6P (glucosamine-6-phosphate [3]) [s⁻¹]
C10G G41U U55A C58G G63U | < 1e-05 | – | –
C10G C58G G62C | < 1e-05 | – | –
C10U U45C C68A | < 1e-05 | – | –
U45C C50A U56C | < 1e-05 | – | –
A14U U30G G40A | 0.000126 ± 3.6e-05 | 0.000424 ± 0.00014 | –
A12C G29C A42C | < 1e-05 | – | –
C10U A36U G41A | < 1e-05 | < 1e-05 | –
C11A A39U U45C G51C C61U | < 1e-05 | < 1e-05 | –
U31G G35U A36G U47A A64G C68U C71G | 9.41e-05 ± 3.3e-05 | – | –
G41C A48U C71U | < 1e-05 | – | –
A15U G35U U46A | < 1e-05 | < 1e-05 | –
G44U G60C G62U | < 1e-05 | < 1e-05 | < 1e-05
A14C G44A A64U | < 1e-05 | – | –
A14C C34A U46G | < 1e-05 | < 1e-05 | –
G13A G29C G66U | < 1e-05 | – | –
G13U A15U C70U | 3.4e-05 ± 9.4e-06 | 7.46e-05 ± 2.2e-05 | 5.88e-05 ± 1.3e-05
U30C G32U C34G G51U | < 1e-05 | < 1e-05 | –
